US20180194862A1 (AbbVie / Abbott, published 2018)

Assays:
[1] = molecular target: T1, mouse CD40 (mouse, UniProt P27512 20-193, limits assumed); assay: FACS
T1 construct: also called murine CD40
T1 sequence (looked up): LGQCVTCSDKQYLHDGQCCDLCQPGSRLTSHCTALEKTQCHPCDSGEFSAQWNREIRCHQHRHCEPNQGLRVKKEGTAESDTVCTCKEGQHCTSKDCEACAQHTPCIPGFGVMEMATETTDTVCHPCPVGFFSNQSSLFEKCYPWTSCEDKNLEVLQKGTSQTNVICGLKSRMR

[2] = molecular target: T2, dog CD40 (dog, UniProt Q7YRL5 21-194, limits assumed); assay: FACS
T2 sequence (looked up): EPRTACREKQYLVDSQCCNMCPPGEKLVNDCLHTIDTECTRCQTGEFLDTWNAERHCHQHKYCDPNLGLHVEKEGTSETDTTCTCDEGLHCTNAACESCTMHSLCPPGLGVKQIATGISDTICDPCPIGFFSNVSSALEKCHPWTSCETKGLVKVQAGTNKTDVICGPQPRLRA

[3] = molecular target: T3, human CD40 on cells (HEK293 stable transfectants, HEK-Blue CD40 cells, human B cells, monocytic cells, … (human, UniProt P25942 21-277)); assay: FACS, HEK293 transfectants
T3 construct: also called cell-surface CD40
T3 sequence (P25942 21-277 limits assumed): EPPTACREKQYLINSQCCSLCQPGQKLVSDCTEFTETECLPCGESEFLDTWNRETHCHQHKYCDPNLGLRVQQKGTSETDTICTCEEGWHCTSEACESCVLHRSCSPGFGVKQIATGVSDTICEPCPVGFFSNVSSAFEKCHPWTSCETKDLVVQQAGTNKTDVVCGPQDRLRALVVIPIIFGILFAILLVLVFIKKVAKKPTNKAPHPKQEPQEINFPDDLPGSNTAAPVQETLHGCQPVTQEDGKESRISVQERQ

B1: huAb8-2 (antibody, human IgG1, V domains shown)
VH: EVQLVQSGAEVKKPGSSVKVSCKASGYTFTDYYINWVRQAPGQGLEWIGWIFPGSGSVYSNEQFKGRATLTVDRSTSTAYMELSSLRSEDTAVYFCASSLGKFAYWGQGTLVTVSS
VL: DIQMTQSPSSLSASVGDRVTITCKASQSVVTAVAWYQQKPGKSPKLLIYSASNRYTGVPSRFSGSGSGTDFTLTISSLQPEDFATYFCQQYSSYPYTFGGGTKVEIK
notes: human IgG1, kappa
**Q.** Does B1 bind [1]?
**A.** Result: no binding

**Q.** Does B1 bind [2]?
**A.** Result: no binding

**Q.** Does B1 bind [3]?
**A.** Result: binds
